Measurements: the supplement of paper PMC9170038

Legend:
MS2 coat protein [1] = experiment: apparent KD of MS2 coat protein; higher = weaker reporter binding; conditions: Eterna round: R101
Procedure: (§1)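 RNA-MaP: designed FMN/MS2 RNA switches (84 nt design region) are transcribed on-chip within common flanks and titrated with SNAP-549-labelled MS2 coat protein (about 1-3000 nM) in 100 mM Tris pH 7.5, 80 mM KCl, 4 mM MgCl2, without or with 200 uM FMN. Median apparent KD per design; activation ratio = KD,OFF / KD,ON.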

MS2 coat protein [2] = experiment: apparent KD of MS2 coat protein; designed switch direction (-1 OFF switch, 1 ON switch): 1; higher = weaker reporter binding; conditions: Eterna round: R98
Procedure: as §1

Sequence | apparent KD of MS2 coat protein (MS2 coat protein [1]; input ligand: FMN 200 uM) | apparent KD of MS2 coat protein (MS2 coat protein [1]; input ligand: none) | apparent KD of MS2 coat protein (MS2 coat protein [2]; input ligand: FMN 200 uM) | apparent KD of MS2 coat protein (MS2 coat protein [2]; input ligand: none)
GUCCCUACAUGAGGAUCACCCAUGUGGGCAGUAAGAAGCCCACAGGAUAUGCGAAGGAGGACAUAGCAGAAGGGUGGUGUUUAG [Reaninveri] (puzzle (switch architecture): Same State NG 3) | 138 nM | 625 nM | – | –
GGCAGCCCUCAGAAGGGAGUGCGAUAAUCGCACUCAGGAUAUGAGGAUCACCCAUAUCAAGCUGCCACUGAGGCAAAGCCUCAG [#SharedSequence - IEx NG 1-1] (puzzle (switch architecture): Inverted Exclusion NG 1) | 57.4 nM | 12.1 nM | – | –
AAAUAAAUUGAAGGAUAUGACCCUCGAGGUGACUAAAAGUCACCUCGAGGGUCAGAAGGUCGAGGAUCACCCGACCUAAAUAAA [#SharedSequence SLExNG1: 4-1] (puzzle (switch architecture): Small Loop Exclusion NG 1) | 8.19 nM | 7.16 nM | – | –
GUCCCUACAUGAGGAUCACCCAUGUGGGCGGUAAGGAGCCCACAGGAUAUGCGAAGGAGGACAUAGCAGAAGGGUGGUGUUCAG [Erenerbe] (puzzle (switch architecture): Same State NG 3) | 33.5 nM | 308 nM | – | –
CUUACUUUGUAGAAGGGUGACAUGAGGAUCACCCAUGUGCGUGGCCUGAAAGACCAGGGUACGCCACAGGAUAUACAAAGUAAG [Esatatina] (puzzle (switch architecture): Inverted Same State NG 2) | 26.1 nM | 15.3 nM | – | –
AAGAAGCUCACAGGAUAUCAGUAUAUGCUAUCUAGCGUAUUAAUGAACUGCUGAGAAGGGUGAGACAUGAGGAUCACCCAUGUA [Angeon] (puzzle (switch architecture): Small Loop Same State NG 1) | 54 nM | 120 nM | – | –
AAUAAACAAUAAAAGACUGGAGCAAACUUUUGAGGAUCACCCAGAAGGCGUCACCUAAUAGGUGACGAGGAUAUGGAGCUCCAG [#SharedSequence IExNG# - 4] (puzzle (switch architecture): Inverted Exclusion NG 3) | 135 nM | 17.3 nM | – | –
ACACGUCGUGAGAAGGAGGAUCACCCUUUCGAAAGAAAUAGCCACCGUGAAAACGGUGGCAAAUCCUAGGAUAUCACGACGUGA [#SharedSequence - IExNG2: 4] (puzzle (switch architecture): Inverted Exclusion NG 2) | 41.8 nM | 551 nM | – | –
AAAGAUUUUUAAGGAUAUCAGUGGCAAAGCCACUGAGAAGGUGAGGAUCACCCACCUACGUGACCCUGGAAACAGGGUCACGAA [#SharedSequence - ExNG1-14] (puzzle (switch architecture): Exclusion NG 1) | 14.7 nM | 13.2 nM | – | –
GUUAUCUCAUGUUCGACGGACAUGAGGAUCACCCAUGUACCUUAGGAUAUUGAUGAAAUAUGGCGCAAGAAGGAAGGUAACGCU [EternaBot964] (puzzle (switch architecture): Exclusion NG 3) | 7.51 nM | – | – | –
CAUGUCCUCACAGGAUAUGCUGGACUUUGUCCAGCAGAAGGGUGAACAUGAGGAUCACCCAUGUUGUGGACAUGUAUAUUUAAU [Denovo 12] | – | – | 526 nM | 394 nM
CACCUAAAUCCUAGAGGAUCACCCUAGGAUAUCACCGUCGAGGUGCCAUAAUGGCACCUCGACGGUGAGAAGGAGGGUAAAUAA [#SharedSequence - SLExNG3: 9] (puzzle (switch architecture): Small Loop Exclusion NG 3) | 6.41 nM | 5.82 nM | – | –
ACAUACUUUCGAGGAUAUCGGUGAUAAAUUUGACGAGAAGGCGAUAAAAGAUAUAAUCUUAUAGACAUGAGGAUCACCCAUGUA [JR_SSNG1_Sub015] | – | – | 36.8 nM | 43.3 nM
CAGCAAUUCUUAGGAUAUGCUCAGGAAUACUGAGCAGAAGGAAGAUAUACCUGAGGAUCACCCAGGUUAAACUGAAGCUGAAAA [Same State NG1 - A3C, U17G Submission 7A] | – | – | 28.5 nM | 21.2 nM
